Assay: yeast display, Sf9 membrane polyspecificity reagent, FACS + sequencing; frameworks hold sequencing errors
Outline: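 Polyreactivity labels are assigned by the sorting gate from which each nanobody was recovered. The gates were low and high (top ~1%), set on anti-HA fluorescence for expression and streptavidin fluorescence for reagent binding. Before sorting, galactose-induced (36–48 hours) yeast display cells were stained for 1 hour at 4 °C with 10% biotinylated, detergent-solubilized Sf9 membrane reagent.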

Row | Sequence | polyreactivity (PSR sort gate)
1 | QVQLVESGGGLVQAGGSLRLSCAASGSTFYYNAMGWYRQAPGKERELVADISWRGGITYYADSVKGRFTISRDNAKNTVYLQMNSLKPEDTAVYYCNADAESFDDGYWGQGTQVTVSS | low polyreactivity
2 | QVQLVESGGGLVQAGGSLRLSCAASGSTFDRYAMGWYRQAPGKERELVASISRSGGNTYYADSVKGRFTISRDNAKNTVYVPMNSLKPDDTAGYYSNKPIGRYSRNRYGYWGQATQVTVSS | high polyreactivity
3 | QVQLVESGGGLVQAGGSLRLSCAASGSTFGLYVMGWYRQAPGQERELVAAISRRGGSTYYADSVKGRFTSSRDNAKNTVYLQMNSLKPEDTAVYYCNTYYRGGPYDVAYDYWGQGTQVTVSS | high polyreactivity
4 | QVQLVESGGGLVQAGGSLRLSCAASGFISTYYAMGWYRQAPGKERELVAAISWNGGSTYYADSVKGRFTISRDNAKNTVYLQMNSLKPEDTAVYYCAAYLGKWRHFYSSDYDYWGQGTQVTVSS | low polyreactivity
5 | QVQLVESGGGLVQAGGSLRLSCAASGSTFVSYAMGWYRQAPGKERELVAVISYRGGGTYYADSVKGRFTISRDNAKNTVYLQMNSLKPEDTAVYYCNAELWVLVSSYSYHYDGFDYWGQGTQVTVSS | low polyreactivity
6 | QVQLVESGGGLVQAGGSLRISCAASGRIFKVYAMGWYRQAPGKERELVAAMSRSGGSTYYADSVKGRFTISRDNAKKTVYFQMNSLKPEDTAVYYCHAYFVYGHACGYDYWGQGSQVTVSS | high polyreactivity
7 | QVQHVESGGGLVQAGGSLRLSCAASASTFAWYPMGWYRQAPGKERELVAAITRDGSTYYADSVKGRFTISRDNAKNTVYLQMNSLKPEDTAVYYCAADLSYWRGGHSRNYWGQGTQVTVSS | low polyreactivity
8 | QVQLVESGGGLVQAGGSLRLTCAASGIIFSGYAMGWYRQAPGTERELVASIRSGSNTYYADSVKGRITISRDNAKYTVYFQMNSLKPEDTGVYYCAADIEYSYFQVFSYNYEYWGQGSQVTVSS | low polyreactivity
9 | QVQLVESGGGVVQAGGSLRLSCAASGRIFRYYTMGWYRQAPGKERELVAAITSSGGSTYYADSVKGRFTISRDNAKNTVYLQMNSLKPEDTAVYYCATRSYVFAWEFNYWGQGSQVTVSS | high polyreactivity
10 | QVQLVESGGGLVQAGGSLRLSCAASGSPFLTNAMGWDRQAPGKERELVAAITWSTGSTYYADSVKGRFTISRDNAKNTVYLQMNSLKPEDTAVYYCNARSEVSYWWGGYWGEGTQVTVSS | low polyreactivity
11 | QVQLVESGGGLVQAGGSLRLSCAASGGTFYANAMGWSRQAPGKEREFVASISRSVGSTYYADSVKGRFTISRDNAKNTVYLQMNSLKPEDTAVYYCAARRYSRPRYTYYSWGQGTQVTVSS | high polyreactivity
12 | QVQLEESGGALVQAGGSLRLSCAASGFIFTLYAMGWYRQAPGKEREFVAAISWSDGSTTYADSVKGRFTISRDNAKNTVYLQMNSLNPEDTAVYYCAAVTSSYIRGLVYHFYYWGQGTQVTVSS | low polyreactivity
13 | QVQLVESGGGLVQAGGSLRLSCAASGIIFTVYVMGWYRQAPGKERELVAGITFSTSSTYYADSVKGRFTISRDNAKNTVYLQMNSLKPEDTAVYYCNKDALQTAFDYWGQGTQVTVSS | low polyreactivity
14 | QVQLVDSGAGLVQAGGSLRISCAATGSTFPRYGMGWYRQAPGKERQMVAAISSGGRTNYADSVKGRFTISRDNAKNTVYLQMNSLKPEDTAVYYCAARIPYYFSYYFYSGMDYWGQGTQVTVSS | high polyreactivity
15 | QDQLVESVGGVVQAGGSLRLSGAASGIIFVAYAMGWYRQAPGKERELVASITYSGGSTNYADSVKGRFTISRDNAKNTVYLQLNSLQPEETAVDYCARDRDPVYASVLWDDYGYWGQGTQVTVSS | low polyreactivity
16 | QVQLVESGGGLVQAGGSLRISCAASGSTFDFYTMGWYRQAHGKEREMVASISWSGRTYYADSVKGRFTISRDNAKNTVYLQMTSLKPEDTAVYYCARRYVVNRDWGDDYWGQGTQVTVSS | high polyreactivity
17 | QVQLVESGGGLVQAGGSLRLSCAASGRIFYVNTMGWYRPAPGKERELVATITWGGDSTYYADSVKGRFTISRDNAKNTVYLQMNSLKPEDTAVYYCAADHHDIRLNTRRNDYRGQGTQVTVSS | low polyreactivity
18 | QVQLVESGGGLVQAGGSLRLSCAASGRIFQIYAMGWYRQAPGKERELVAAISGSTSYADSVKGRFTISRDNAKNTVYLQMNCLKPEDSAVYDCSALSLLPNGEYWGQGSQVTVSS | low polyreactivity
19 | QVQLVESGGGLVQAGGSLRLSCAASGYIFRYYAMGWYREAPGKERELVARINSGGSTYADSVKGRFTISRDNAKNTVYLQMNSLKPEDTAVYYCAADLAKYRSKLGYWGQVTQVTVSS | high polyreactivity
20 | QVQLVESGGGLVQAGGSLRLSCAASGSTFGGNAMGWYRQAPGKEREFVAAISYSGGSTYYADSVKGRFTISRDNAKNTVYLQMNSLKPEDTAVYYCAATGEPPVFRNGYWGQGTQVTVSS | low polyreactivity
21 | QVQLVESGGGLVQAGGSLRLSCAASGGTFWLYTMGWYRQAPGKERELVAAITKSGGSTYYADSVKGRFTISRDNAKNTVYLQMNSLKPEDTAVYYCAARYSVYRDGYYWGQGTQVTVSS | high polyreactivity
22 | QVQLVESGGGLVQAGGSLRLSCAASGLTFWDNAMGWYRQAPGKERELVAAIRGGGSTYYADSVKGRFTISRDNAKNTVYLQMNSLKPEDTAVYYCNAESYQDTLFGADNDYDYWGQGTQVTVSS | low polyreactivity
23 | QVQLVESGGGLVQAGGSLRLSCAASGSIFVYNAMGRYRQAPGKEREYVAAITYSGGSTYYADSVKGRFTISRDNAKNTVDLQMNSLKPEDTAVYYCAADYFQHVPKYGYWGQGTQVNVSS | low polyreactivity
24 | QVQLVESGGGLVQAGCSLRLSCAASRYIFYFYAMGWYRQAPGKERELVAAINSGGTTNYADSVKGRFTISRDNAKNTVYLQMNSLKAEDTAVYYCAARLLIRYYYWGQGTQVTVSS | high polyreactivity
25 | QVQLVESGGGLVQAGGSLRLSCAASGFTFSPNAMGWYRQAHGKESELVAAIDWSGDRTYYADSVKGRFTISRDNAKKTVYLQINSLKPEDTAVYYCNVVRRSPGDYTYYYWGQGTQVTVSS | low polyreactivity
26 | QVQLVESGGGLVQAGGSLRLSCAATRRTFYSYAMGWYRQAPGKESELLASITSTGSTYYADSVKGRFTISRDNAKNTVYLQMNSLKPEDTAVYYCAARRQPRYSQRSTYYYWGQGTQVTVSS | high polyreactivity
27 | QVQLVESGGGLVQAGGSLRLSCAASGRTFYHYAMGWYRQAPGKEREFVAAISVSGGRTYYADSVKGRFTISRDNAKNTVYLQMNSLKPEDTAVYYCAARSGAQRGGGYWGQGTQVTVSS | high polyreactivity
28 | QVQLVESGGGLVQAGGSLRLSCAASGSTFGYNAMGWYRQAPGKERELVAAITWSGGSTYYADSVKGRFTISRDNAKNTVYLQMNSLKPEDTAVYYCAADDWYNSTWHYYYWGQGTQVTVSS | low polyreactivity
29 | QVQLVESGGGLVQAGGSLRLSCAASGSILKPYAMRSYRQAPGKERELVAAISGTGGSTYYADSVKGRFTISRDNAKNTVYLQMNSLKPEDTAVYYCNADEFRYAFEYWGQGTQVTVSW | high polyreactivity
30 | QVHLVESGGGLVQAGGSLRLSCAASGSTLVTNAIGWYRQAPGKERELVAAITFSGGTTYYADSVKGRFTISRDNAKNTVYLQLNSLKPEDTAVYYCAAENWLEYVGYDFWGQGTHVTVSS | high polyreactivity

— the nanobody polyreactivity screen of Harvey et al. (2022)
